# Laboratory results reported in patent US20260266848A1, “COMPOSITIONS AND METHODS FOR DIAGNOSING AND TREATING DYSTONIA” (Duke University, priority 2023, published 2026).
# B1: Lmna (protein, UniProt P48678 1-662, looked up)
# Prelamin-A/C: METPSQRRATRSGAQASSTPLSPTRITRLQEKEDLQELNDRLAVYIDRVRSLETENAGLRLRITESEEVVSREVSGIKAAYEAELGDARKTLDSVAKERARLQLELSKVREEFKELKARNTKKEGDLLAAQARLKDLEALLNSKEAALSTALSEKRTLEGELHDLRGQVAKLEAALGEAKKQLQDEMLRRVDAENRLQTLKEELDFQKNIYSEELRETKRRHETRLVEIDNGKQREFESRLADALQELRAQHEDQVEQYKKELEKTYSAKLDNARQSAERNSNLVGAAHEELQQSRIRIDSLSAQLSQLQKQLAAKEAKLRDLEDSLARERDTSRRLLAEKEREMAEMRARMQQQLDEYQELLDIKLALDMEIHAYRKLLEGEEERLRLSPSPTSQRSRGRASSHSSQSQGGGSVTKKRKLESSESRSSFSQHARTSGRVAVEEVDEEGKFVRLRNKSNEDQSMGNWQIRRQNGDDPLMTYRFPPKFTLKAGQVVTIWASGAGATHSPPTDLVWKAQNTWGCGSSLRTALINSTGEEVAMRKLVRSLTMVEDNEDDDEDGEELLHHHRGSHCSGSGDPAEYNLRSRTVLCGTCGQPADKAAGGAGAQVGGSISSGSSASSVTVTRSFRSVGGSGGGSFGDNLVTRSYLLGNSSPRSQSSQNC
# B2: Ddr2 (protein, UniProt Q62371 22-854, looked up)
# Discoidin domain-containing …: KAQVNPAICRYPLGMSGGHIPDEDITASSQWSESTAAKYGRLDSEEGDGAWCPEIPVQPDDLKEFLQIDLRTLHFITLVGTQGRHAGGHGIEFAPMYKINYSRDGSRWISWRNRHGKQVLDGNSNPYDVFLKDLEPPIVARFVRLIPVTDHSMNVCMRVELYGCVWLDGLVSYNAPAGQQFVLPGGSIIYLNDSVYDGAVGYSMTEGLGQLTDGVSGLDDFTQTHEYHVWPGYDYVGWRNESATNGFIEIMFEFDRIRNFTTMKVHCNNMFAKGVKIFKEVQCYFRSEASEWEPTAVYFPLVLDDVNPSARFVTVPLHHRMASAIKCQYHFADTWMMFSEITFQSDAAMYNNSGALPTSPMAPTTYDPMLKVDDSNTRILIGCLVAIIFILLAIIVIILWRQFWQKMLEKASRRMLDDEMTVSLSLPSESSMFNNNRSSSPSEQESNSTYDRIFPLRPDYQEPSRLIRKLPEFAPGEEESGCSGVVKPAQPNGPEGVPHYAEADIVNLQGVTGGNTYCVPAVTMDLLSGKDVAVEEFPRKLLAFKEKLGEGQFGEVHLCEVEGMEKFKDKDFALDVSANQPVLVAVKMLRADANKNARNDFLKEIKIMSRLKDPNIIRLLAVCITEDPLCMITEYMENGDLNQFLSRHEPLSSCSSDATVSYANLKFMATQIASGMKYLSSLNFVHRDLATRNCLVGKNYTIKIADFGMSRNLYSGDYYRIQGRAVLPIRWMSWESILLGKFTTASDVWAFGVTLWETFTFCQEQPYSQLSDEQVIENTGEFFRDQGRQIYLPQPALCPDSVYKLMLSCWRRETKHRPSFQEIHLLLLQQGAE
# B3: Mcm2 (protein, UniProt P97310 2-904, looked up)
# DNA replication licensing …: AESSESLSASSPARQRRRISDPLTSSPGRSSRRADALTSSPGRDLPPFEDESEGLLGTEGPMEEEEDGEELIGDGMERDYRPIPELDVYEAEGLALDDEDVEELTASQREAAERTMRQRDREAGRGLGRMRRGLLYDSSEEDEERPARKRRHVERATEDGEEDEEMIESIENLEDLKGHSVREWVSMAGPRLEIHHRFKNFLRTHVDSHGHNVFKERISDMCKENRESLVVNYEDLAAREHVLAYFLPEAPAELLQIFDEAALEVVLAMYPKYDRITNHIHVRISHLPLVEELRSLRQLHLNQLIRTSGVVTSCTGVLPQLSMVKYNCSKCNFVLGPFCQSQNQEVKPGSCPECQSAGPFEINMEETIYQNYQRIRIQESPGKVAAGRLPRSKDAILLADLVDSCKPGDEIELTGIYHNNYDGSLNTANGFPVFATIILANHVAKKDNKVAVGELTDEDVKMITGLSKDQQIGEKIFASIAPSIYGHEDIKRGLALALFGGEPKNPGGKHKVRGDINVLLCGDPGTAKSQFLKYIEKVSSRAIFTTGQGASAVGLTAYVQRHPVSREWTLEAGALVLADRGVCLIDEFDKMNDQDRTSIHEAMEQQSISISKAGIVTSLQARCTVIAAANPIGGRYDPSLTFSENVDLTEPIISRFDVLCVVRDTVDPVQDEMLARFVVGSHVRHHPSNKKDEGLTNGGTLEPAMPNTYGVEPLPQEVLKKYIIYAKERVRPKLNQMDQDKVARMYSDLRKESMATGSIPITVRHIESMIRMAEAHARMHLRDYVMEDDVNMAIRVMMESFIDTQKFSVMRSMRKTFARYLSFRRDNNDLLLFILKQLVAEQVTYQRNRFGAQQDTIEIPEKDLMDKARQINIHNLSAFYDSDLFKFNKFSRDLKRKLILQQF
# B4: Pdia6 (protein, UniProt Q922R8 20-440, looked up)
# Protein disulfide-isomerase A6: LYSSSDDVIELTPSNFNREVIQSDGLWLVEFYAPWCGHCQRLTPEWKKAATALKDVVKVGAVNADKHQSLGGQYGVQGFPTIKIFGANKNKPEDYQGGRTGEAIVDAALSALRQLVKDRLGGRSGGYSSGKQGRGDSSSKKDVVELTDDTFDKNVLDSEDVWMVEFYAPWCGHCKNLEPEWAAAATEVKEQTKGKVKLAAVDATVNQVLASRYGIKGFPTIKIFQKGESPVDYDGGRTRSDIVSRALDLFSDNAPPPELLEIINEDIAKKTCEEHQLCVVAVLPHILDTGAAGRNSYLEVLLKLADKYKKKMWGWLWTEAGAQYELENALGIGGFGYPAMAAINARKMKFALLKGSFSEQGINEFLRELSFGRGSTAPVGGGSFPTITPREPWDGKDGELPVEDDIDLSDVELDDLEKDEL
# B5: Srp68 (protein, UniProt Q8BMA6 1-625, looked up)
# Signal recognition particle …: MAAEKQIPGGGSGGGGSGSGGGGGGSGGGRSAGGDENKENERPSAGSKANKEFGDSLSLEILQIIKESQQQHGLRHGDFQRYRGYCSRRQRRLRKTLNFKMGNRHKFTGKKVTEELLTDNRYLLLVLMDAERAWSYAMQLKQEANTEPRKRFHLLSRLRKAVKHAEELERLCESNRVDAKTKLEAQAYTAYLSGMLRFEHQEWKSAIEAFNKCKTIYEKLASAFTEEQAVLYNQRVEEISPNIRYCAYNIGDQSAINELMQMRLRSGGTEGLLAEKLEALITQTRAKQAATMSEVEWRGRTVPVKIDKVRIFLLGLADNEAAIVQAESEETKERLFESMLSECRDALQAVREELKPDQKQRDYALDGESGKVSNLQYLHSYLTYIKLSTAIRRNENMAKGLHRALLQQQPEDDSKRSPRPQDLIRLYDIILQNLVELLQLPGLEEDRTFQKEISLKTLVFKAYRCFFIAQSYVLVKKWSEALVLYDRVLKYANEVSSHGGASKNSLKDLPDVQELITQVRSEKCSLQAAAILDANDSHQTDTSSQVKDNTPLVERFESFCLDPSLVTKQANLVHFPPGFQPIPCKPLFFDLALNHVAFPPLEDKLEQKTKSGLTGYIKGIFGFRS
# B6: Aco1 (protein, UniProt P28271 1-889, looked up)
# Cytoplasmic aconitate …: MKNPFAHLAEPLDAAQPGKRFFNLNKLEDSRYGRLPFSIRVLLEAAVRNCDEFLVKKNDIENILNWNVMQHKNIEVPFKPARVILQDFTGVPAVVDFAAMRDAVKKLGGNPEKINPVCPADLVIDHSIQVDFNRRADSLQKNQDLEFERNKERFEFLKWGSQAFCNMRIIPPGSGIIHQVNLEYLARVVFDQDGCYYPDSLVGTDSHTTMIDGLGVLGWGVGGIEAEAVMLGQPISMVLPQVIGYKLMGKPHPLVTSTDIVLTITKHLRQVGVVGKFVEFFGPGVAQLSIADRATIANMCPEYGATAAFFPVDEVSIAYLLQTGREEDKVKHIQKYLQAVGMFRDFNDTSQDPDFTQVVELDLKTVVPCCSGPKRPQDKVAVSEMKKDFESCLGAKQGFKGFQVAPDRHNDRKTFLYSNSEFTLAHGSVVIAAITSCTNTSNPSVMLGAGLLAKKAVEAGLSVKPYIKTSLSPGSGVVTYYLRESGVMPYLSQLGFDVVGYGCMTCIGNSGPLPEPVVEAITQGDLVAVGVLSGNRNFEGRVHPNTRANYLASPPLVIAYAIAGTVRIDFEKEPLGVNAQGRQVFLKDIWPTRDEIQAVERQHVIPGMFKEVYQKIETVNKSWNALAAPSEKLYAWNPKSTYIKSPPFFESLTLDLQPPKSIVDAYVLLNLGDSVTTDHISPAGNIARNSPAARYLTNRGLTPREFNSYGSRRGNDAIMARGTFANIRLLNKFLNKQAPQTVHLPSGETLDVFDAAERYQQAGLPLIVLAGKEYGSGSSRDWAAKGPFLLGIKAVLAESYERIHRSNLVGMGVIPLEYLPGETADSLGLTGRERYTINIPEDLKPRMTVQIKLDTGKTFQAVMRFDTDVELTYFHNGGILNYMIRKMAQ
# System: DYT-TOR1A MEF EVs
# Assay: Quantitative LC-MS/MS proteomics of EVs from drug-treated DYT-TOR1A MEF cultures (ritonavir, salubrinal)
# Assay type: cell-based, mouse
# Design: key to RTV Corrective Direction / RTV Corrective Direction, Grwd1 / RTV Corrective Direction, Srrm2 / RTV Corrective Direction, Rbm17 / RTV Corrective Direction, Dcaf8 / RTV Corrective Direction, Edil3 / RTV Corrective Direction, Timp3 / RTV Corrective Direction, Heatr3 / RTV Corrective Direction, Brd4 / RTV Corrective Direction, P3h4 / RTV Corrective Direction, Pacsin3 / RTV Corrective Direction, Naa50 / RTV Corrective Direction, Lpar6 / RTV Corrective Direction, Ndrg1 / RTV Corrective Direction, Kntc1 / RTV Corrective Direction, Cdk11b / RTV Corrective Direction, Sumo1 / RTV Corrective Direction, Lsm4 / RTV Corrective Direction, Hmga2 / RTV Corrective Direction, Cstf1 / RTV Corrective Direction, Tes / RTV Corrective Direction, Sbno1 / RTV Corrective Direction, Unc119b / RTV Corrective Direction, Cfdp1 / RTV Corrective Direction, Sec61b: YES = protein abundance effect opposite to DYT/WT
# Details: EV protein abundance, DYT + RTV (ritonavir) vs DYT, direction compared with DYT/WT
row,Molecule,RTV Corrective Direction
1,B1,YES
2,B2,YES
3,B3,YES
4,B4,YES
5,B5,YES
6,B6,YES

# Same assay, conditions: EV protein abundance, ritonavir (RTV)-treated DYT vs DYT
row,Molecule,DYT + RTV/DYT Cohen's d
1,B1,3.97
2,B2,0.93
3,B3,3.96
4,B4,3.27
5,B5,2.70
6,B6,3.33

# System: WT MEF EVs
# Assay: Quantitative LC-MS/MS proteomics of EVs from ISRIB-treated WT MEF cultures
# Assay type: cell-based, mouse
# Design: key to ISRIB and DYT Parallel Direction / ISRIB and DYT Parallel Direction, Ctdsp1 / ISRIB and DYT Parallel Direction, Pcdh19 / ISRIB and DYT Parallel Direction, Tspan7 / ISRIB and DYT Parallel Direction, Myo1e / ISRIB and DYT Parallel Direction, Plpp3 / ISRIB and DYT Parallel Direction, Sh3bp4 / ISRIB and DYT Parallel Direction, Dnajc7 / ISRIB and DYT Parallel Direction, Drg1 / ISRIB and DYT Parallel Direction, Maea: YES = protein abundance effect similar to DYT/WT
# Details: EV protein abundance, ISRIB-treated WT vs WT
row,Molecule,WT + ISRIB/WT Cohen's d
1,B1,−0.19
2,B2,−7.89
3,B3,−2.10
4,B4,−1.84
5,B5,−1.21
6,B6,−1.03

# Same assay, conditions: EV protein abundance, WT + ISRIB vs WT, direction compared with DYT/WT
row,Molecule,ISRIB and DYT Parallel Direction
1,B1,YES
2,B2,YES
3,B3,YES
4,B4,YES
5,B5,YES
6,B6,YES
